± gives the uncertainty stated by the source.
Experiment: self-splicing fitness, log relative to wild type (ln ratio); higher = more splicing; Tetrahymena group I intron in knt gene, E. coli kanamycin selection, DiMSum; sequences stand for … in CUCUCU…GGAGGGAAAAGUUAUCAGGCAUGCACCUGGUAGCUAGUCUUUAAACCAAUAGAUUGCAUCGGUUUAAAAGGCAAGACCGUCAAAUUGCGGGAAAGGGGUCAACAGCCGUUCAGUACCAAGUCUCAGGGGAAACUUUGAGAUGGCCUUGCAAAGGGUAUGGUAAUAAGCUGACGGACAUGGUCCUAACCACGCAGCCAAGUCCUAAGUCAACAGAUCUUCUGUUGAUAUGGAUGCAGUUCACAGACUAAAUGUCGGUCGGGGAAGAUGUAUUCUUCUCAUAAGAUAUAGUCGGACCUCUCCUUAAUGGGAGCUAGCGGAUGAAGUGAUGCAACACUGGAGCCGCUGGGAACUAAUUUGUAUGCGAAAGUAUAUUGAUUAGUUUUGGAGUACUCGUGGUCG
Outline: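 The eight P1ex-region nucleotides of an intron in the knt kanamycin-resistance gene on pET-22b(+) were all randomised and the library put into E. coli BL21(DE3). Six replicate transformations were grown overnight at 37°C or 30°C on LB agar with or without 25 μg/mL kanamycin, together with 100 μg/mL carbenicillin, 50 μM IPTG and 0.2% rhamnose. Colonies were pooled and amplicon-sequenced on an Illumina HiSeq 2500. Fitness from DiMSum is the error-weighted combination of wild-type-normalised replicate fold changes, kanamycin over none.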

Sequence	self-splicing fitness (ln) (30 °C)	self-splicing fitness (ln) (37 °C)
UGAUAGCAAUAUUACGUACG	-0.418 ± 0.074	0.13 ± 0.1
GCGAAGCAAUAUUACGUGUU	-2.52 ± 0.11	-2.07 ± 0.11
AAUGAGCAAUAUUACGGUCC	-2.47 ± 0.45	–
UGACAGCAAUAUUACGUACG	-0.78 ± 0.071	-0.016 ± 0.083
GGGCAGCAAUAUUACGUUGA	-1.3 ± 0.081	-0.64 ± 0.098
UACAAGCAAUAUUACGUACG	-3.9 ± 0.22	-1.3 ± 0.13
AAUGAGCAAUAUUACGCUUA	-1.94 ± 0.14	-0.919 ± 0.12
UUAGAGCAAUAUUACGUCGG	-1.11 ± 0.12	-0.455 ± 0.14
CGUUAGCAAUAUUACGACCU	-0.403 ± 0.2	-0.596 ± 0.18
AUACAGCAAUAUUACGCACU	-0.66 ± 0.11	0.0538 ± 0.14
AAAGAGCAAUAUUACGACCU	-1.39 ± 0.15	-0.748 ± 0.16
UGUGAGCAAUAUUACGUGGU	-3.75 ± 0.23	-1.88 ± 0.17
CCUUAGCAAUAUUACGACGU	-2.25 ± 0.18	-1.9 ± 0.23
GGCCAGCAAUAUUACGCUAA	-0.606 ± 0.09	-0.303 ± 0.1
CUUGAGCAAUAUUACGGUGA	-3.34 ± 0.27	-2 ± 0.25
GUCUAGCAAUAUUACGCCUG	–	-3.47 ± 0.41
CGUCAGCAAUAUUACGCCCU	-1.89 ± 0.15	-0.223 ± 0.23
CGACAGCAAUAUUACGACAG	-0.3 ± 0.069	0.0609 ± 0.084
CAUUAGCAAUAUUACGGGCG	-0.183 ± 0.092	0.436 ± 0.098
CGCUAGCAAUAUUACGCAUU	-3.69 ± 0.28	-2.04 ± 0.27
CGUUAGCAAUAUUACGCGAC	-3.76 ± 0.26	-1.84 ± 0.17
CAGCAGCAAUAUUACGGUGG	-1.17 ± 0.067	-0.196 ± 0.088
AACCAGCAAUAUUACGUGAG	-0.744 ± 0.04	-0.39 ± 0.067
UAUAAGCAAUAUUACGUUAC	-3.45 ± 0.21	-2.46 ± 0.23
UUGUAGCAAUAUUACGGGGC	-3.56 ± 0.37	-3.67 ± 0.46

Sequence	self-splicing fitness (ln) (30 °C)	self-splicing fitness (ln) (37 °C)
UCUGAGCAAUAUUACGAGCC	-1.65 ± 0.22	–
AAGGAGCAAUAUUACGCAUU	-2.8 ± 0.15	-1.64 ± 0.16
UAGCAGCAAUAUUACGCGGU	-4.14 ± 0.22	-2.49 ± 0.17
UUAUAGCAAUAUUACGGCUA	-0.836 ± 0.15	-0.316 ± 0.14
UUGGAGCAAUAUUACGGCUU	-1.18 ± 0.46	-2.15 ± 0.48
AUCCAGCAAUAUUACGGAGU	-3.02 ± 0.098	-1.99 ± 0.11
GUUGAGCAAUAUUACGCAUG	-2.87 ± 0.16	-1.18 ± 0.16
AGGGAGCAAUAUUACGCCGU	-2.11 ± 0.42	-0.233 ± 0.39
CCCCAGCAAUAUUACGGGCA	-2.57 ± 0.13	-1.45 ± 0.11
UAUGAGCAAUAUUACGUACC	-2.28 ± 0.46	-1.86 ± 0.43
ACGGAGCAAUAUUACGAUAG	-3.57 ± 0.29	-3.09 ± 0.34
UUUCAGCAAUAUUACGUUUC	–	-2.28 ± 0.29
CUGAAGCAAUAUUACGUACC	-3.37 ± 0.36	–
GUUCAGCAAUAUUACGGCAA	-0.436 ± 0.078	-0.458 ± 0.1
GCAUAGCAAUAUUACGCUUG	-3.29 ± 0.21	-2.64 ± 0.31
UUGCAGCAAUAUUACGUAUU	-2.57 ± 0.14	-1.43 ± 0.15
UAAUAGCAAUAUUACGCUCG	0.447 ± 0.16	0.265 ± 0.18
GAGAAGCAAUAUUACGCUCA	-1.29 ± 0.16	-1.13 ± 0.15
ACAAAGCAAUAUUACGGCCG	-0.257 ± 0.09	0.0921 ± 0.14
CUCCAGCAAUAUUACGUAAG	-0.512 ± 0.053	0.0902 ± 0.076
CGUAAGCAAUAUUACGUGGC	-4.85 ± 0.36	-2.39 ± 0.15
UCACAGCAAUAUUACGUUAC	-3.74 ± 0.23	-2.06 ± 0.16
GUUCAGCAAUAUUACGGUCC	-0.652 ± 0.19	0.182 ± 0.23
CAACAGCAAUAUUACGUCAG	-0.334 ± 0.053	-0.55 ± 0.066
CCACAGCAAUAUUACGCACG	-0.551 ± 0.063	-0.626 ± 0.093

Sequence	self-splicing fitness (ln) (30 °C)	self-splicing fitness (ln) (37 °C)
UUUUAGCAAUAUUACGGAUG	-1.12 ± 0.22	0.2 ± 0.15
UACGAGCAAUAUUACGACCU	-2.35 ± 0.27	-1.82 ± 0.5
AGAAAGCAAUAUUACGAAGU	-3.61 ± 0.27	-2.15 ± 0.21
GCUUAGCAAUAUUACGGCGU	-0.354 ± 0.1	-0.748 ± 0.11
AUCUAGCAAUAUUACGAACU	-0.13 ± 0.12	0.27 ± 0.12
GCGCAGCAAUAUUACGCAUG	-3.37 ± 0.28	-3.3 ± 0.33
CAUAAGCAAUAUUACGGUCG	0.0543 ± 0.064	-0.0112 ± 0.079
CGCUAGCAAUAUUACGAAUG	-1.33 ± 0.17	-0.192 ± 0.16
UGAUAGCAAUAUUACGGACG	-0.432 ± 0.1	-0.181 ± 0.15
GAGCAGCAAUAUUACGCAGC	-3.7 ± 0.21	-2.61 ± 0.29
UAAUAGCAAUAUUACGGCAU	-3.26 ± 0.18	-2.28 ± 0.23
GCAAAGCAAUAUUACGUCUU	-1.14 ± 0.074	-1.11 ± 0.075
GCCCAGCAAUAUUACGCUAG	-3.11 ± 0.18	-2.34 ± 0.17
CCAGAGCAAUAUUACGUAUG	-2.22 ± 0.11	-1.77 ± 0.12
CAGUAGCAAUAUUACGCGCA	-1.08 ± 0.074	-0.617 ± 0.085
UCGAAGCAAUAUUACGCAAU	–	-2.03 ± 0.27
GAACAGCAAUAUUACGUGAC	-1.63 ± 0.11	-0.482 ± 0.15
UAGAAGCAAUAUUACGGGCC	–	-1.9 ± 0.31
UGUCAGCAAUAUUACGGAGA	-1.58 ± 0.1	-0.867 ± 0.091
CACUAGCAAUAUUACGGCAA	-4.1 ± 0.42	-2.08 ± 0.18
GGAGAGCAAUAUUACGUAGU	-1.91 ± 0.19	-2.15 ± 0.3
CUAGAGCAAUAUUACGCUUC	-2.21 ± 0.42	-1.97 ± 0.3
CGAGAGCAAUAUUACGGGAC	-3.92 ± 0.18	-1.87 ± 0.16
GCCUAGCAAUAUUACGAGGA	-0.444 ± 0.06	-0.065 ± 0.067
UUUAAGCAAUAUUACGUUUG	-2.96 ± 0.19	-1.42 ± 0.13

Sequence	self-splicing fitness (ln) (30 °C)	self-splicing fitness (ln) (37 °C)
UCUUAGCAAUAUUACGGCCA	-2.31 ± 0.38	–
AGUCAGCAAUAUUACGGAUU	-2.25 ± 0.14	-1.42 ± 0.11
GUGCAGCAAUAUUACGGGCA	-2.08 ± 0.15	-1.23 ± 0.15
UACGAGCAAUAUUACGGUCU	-4.06 ± 0.34	-3.1 ± 0.4
GGCAAGCAAUAUUACGCUCC	-2.93 ± 0.44	-1.07 ± 0.36
GGUGAGCAAUAUUACGGUUG	-3.99 ± 0.37	-2.36 ± 0.25
GCAGAGCAAUAUUACGGCAG	-2.87 ± 0.23	-1.18 ± 0.25
UCGAAGCAAUAUUACGACUC	–	0.412 ± 0.47
AUAAAGCAAUAUUACGCUAU	-1.28 ± 0.089	-0.692 ± 0.098
AAUAAGCAAUAUUACGCGGG	-2.62 ± 0.13	-1.35 ± 0.14
CCAUAGCAAUAUUACGUAAC	–	-2.7 ± 0.29
UCAAAGCAAUAUUACGAGCC	-2.27 ± 0.23	–
GGUAAGCAAUAUUACGAUCC	–	-1.74 ± 0.42
UCCGAGCAAUAUUACGGAUC	–	-2.41 ± 0.39
GCGUAGCAAUAUUACGGCAG	-3.83 ± 0.28	-2.13 ± 0.39
CUACAGCAAUAUUACGGGAG	-2.62 ± 0.11	-1.96 ± 0.12
CCGCAGCAAUAUUACGAUUC	-3.56 ± 0.19	-3.03 ± 0.21
CUACAGCAAUAUUACGCCAC	-3.68 ± 0.33	–
UACAAGCAAUAUUACGAAGU	-4.09 ± 0.42	-1.97 ± 0.24
CUAAAGCAAUAUUACGGGCA	-3.06 ± 0.14	-2.54 ± 0.21
GGCAAGCAAUAUUACGGCCG	-1.09 ± 0.11	0.00962 ± 0.13
GCCAAGCAAUAUUACGGUAC	-2.01 ± 0.13	-0.941 ± 0.13
GUGGAGCAAUAUUACGAAAU	-4.22 ± 0.36	-2.05 ± 0.29
GCUAAGCAAUAUUACGCAAG	–	-1.46 ± 0.28
CUAAAGCAAUAUUACGUCUU	-3.95 ± 0.22	-3.24 ± 0.3
